What was measured:
[1] = target: T1, wildtype human HMGCS1 (3-hydroxy-3-methylglutaryl-coenzyme A synthase) (human), Q01581; assay: SEC; conditions: remark: other sources report otherwise
T1 chain: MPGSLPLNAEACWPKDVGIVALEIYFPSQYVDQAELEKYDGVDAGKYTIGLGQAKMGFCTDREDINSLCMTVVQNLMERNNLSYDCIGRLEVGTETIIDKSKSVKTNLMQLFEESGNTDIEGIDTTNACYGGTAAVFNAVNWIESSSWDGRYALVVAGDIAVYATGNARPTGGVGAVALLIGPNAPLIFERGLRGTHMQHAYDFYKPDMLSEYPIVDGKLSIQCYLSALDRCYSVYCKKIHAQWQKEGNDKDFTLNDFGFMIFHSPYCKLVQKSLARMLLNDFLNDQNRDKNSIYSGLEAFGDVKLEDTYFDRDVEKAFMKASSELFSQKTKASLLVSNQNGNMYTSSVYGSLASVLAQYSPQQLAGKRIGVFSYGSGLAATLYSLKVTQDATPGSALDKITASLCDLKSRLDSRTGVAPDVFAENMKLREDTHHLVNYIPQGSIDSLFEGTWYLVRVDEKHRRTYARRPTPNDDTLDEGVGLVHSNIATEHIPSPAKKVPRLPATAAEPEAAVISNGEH

SEC = target: the molecule itself; assay: SEC

B1: wildtype human HMGCS1 (3-hydroxy-3-methylglutaryl-coenzyme A synthase), Q01581 1-520 (enzyme)
chain: MPGSLPLNAEACWPKDVGIVALEIYFPSQYVDQAELEKYDGVDAGKYTIGLGQAKMGFCTDREDINSLCMTVVQNLMERNNLSYDCIGRLEVGTETIIDKSKSVKTNLMQLFEESGNTDIEGIDTTNACYGGTAAVFNAVNWIESSSWDGRYALVVAGDIAVYATGNARPTGGVGAVALLIGPNAPLIFERGLRGTHMQHAYDFYKPDMLSEYPIVDGKLSIQCYLSALDRCYSVYCKKIHAQWQKEGNDKDFTLNDFGFMIFHSPYCKLVQKSLARMLLNDFLNDQNRDKNSIYSGLEAFGDVKLEDTYFDRDVEKAFMKASSELFSQKTKASLLVSNQNGNMYTSSVYGSLASVLAQYSPQQLAGKRIGVFSYGSGLAATLYSLKVTQDATPGSALDKITASLCDLKSRLDSRTGVAPDVFAENMKLREDTHHLVNYIPQGSIDSLFEGTWYLVRVDEKHRRTYARRPTPNDDTLDEGVGLVHSNIATEHIPSPAKKVPRLPATAAEPEAAVISNGEH
Which stoichiometry N [1] does the source give for B1 here?
Its stoichiometry N is 2.

B2: human HMGCS1 p.Gln29Leu (enzyme, UniProt Q01581 1-520, looked up)
chain: MPGSLPLNAEACWPKDVGIVALEIYFPSLYVDQAELEKYDGVDAGKYTIGLGQAKMGFCTDREDINSLCMTVVQNLMERNNLSYDCIGRLEVGTETIIDKSKSVKTNLMQLFEESGNTDIEGIDTTNACYGGTAAVFNAVNWIESSSWDGRYALVVAGDIAVYATGNARPTGGVGAVALLIGPNAPLIFERGLRGTHMQHAYDFYKPDMLSEYPIVDGKLSIQCYLSALDRCYSVYCKKIHAQWQKEGNDKDFTLNDFGFMIFHSPYCKLVQKSLARMLLNDFLNDQNRDKNSIYSGLEAFGDVKLEDTYFDRDVEKAFMKASSELFSQKTKASLLVSNQNGNMYTSSVYGSLASVLAQYSPQQLAGKRIGVFSYGSGLAATLYSLKVTQDATPGSALDKITASLCDLKSRLDSRTGVAPDVFAENMKLREDTHHLVNYIPQGSIDSLFEGTWYLVRVDEKHRRTYARRPTPNDDTLDEGVGLVHSNIATEHIPSPAKKVPRLPATAAEPEAAVISNGEH
With B2 as the binder, how does the “stoichiometry N” value (SEC) read?
Its value is 2.

B3: human HMGCS1 p.Ser447Pro (enzyme, UniProt Q01581 1-520, looked up)
chain: MPGSLPLNAEACWPKDVGIVALEIYFPSQYVDQAELEKYDGVDAGKYTIGLGQAKMGFCTDREDINSLCMTVVQNLMERNNLSYDCIGRLEVGTETIIDKSKSVKTNLMQLFEESGNTDIEGIDTTNACYGGTAAVFNAVNWIESSSWDGRYALVVAGDIAVYATGNARPTGGVGAVALLIGPNAPLIFERGLRGTHMQHAYDFYKPDMLSEYPIVDGKLSIQCYLSALDRCYSVYCKKIHAQWQKEGNDKDFTLNDFGFMIFHSPYCKLVQKSLARMLLNDFLNDQNRDKNSIYSGLEAFGDVKLEDTYFDRDVEKAFMKASSELFSQKTKASLLVSNQNGNMYTSSVYGSLASVLAQYSPQQLAGKRIGVFSYGSGLAATLYSLKVTQDATPGSALDKITASLCDLKSRLDSRTGVAPDVFAENMKLREDTHHLVNYIPQGSIDPLFEGTWYLVRVDEKHRRTYARRPTPNDDTLDEGVGLVHSNIATEHIPSPAKKVPRLPATAAEPEAAVISNGEH
B3 was tested. Which “stoichiometry N” value (SEC) did it give?
The value was 2.

B4: human HMGCS1 p.Met70Thr (enzyme, UniProt Q01581 1-520, looked up)
chain: MPGSLPLNAEACWPKDVGIVALEIYFPSQYVDQAELEKYDGVDAGKYTIGLGQAKMGFCTDREDINSLCTTVVQNLMERNNLSYDCIGRLEVGTETIIDKSKSVKTNLMQLFEESGNTDIEGIDTTNACYGGTAAVFNAVNWIESSSWDGRYALVVAGDIAVYATGNARPTGGVGAVALLIGPNAPLIFERGLRGTHMQHAYDFYKPDMLSEYPIVDGKLSIQCYLSALDRCYSVYCKKIHAQWQKEGNDKDFTLNDFGFMIFHSPYCKLVQKSLARMLLNDFLNDQNRDKNSIYSGLEAFGDVKLEDTYFDRDVEKAFMKASSELFSQKTKASLLVSNQNGNMYTSSVYGSLASVLAQYSPQQLAGKRIGVFSYGSGLAATLYSLKVTQDATPGSALDKITASLCDLKSRLDSRTGVAPDVFAENMKLREDTHHLVNYIPQGSIDSLFEGTWYLVRVDEKHRRTYARRPTPNDDTLDEGVGLVHSNIATEHIPSPAKKVPRLPATAAEPEAAVISNGEH
How did the “stoichiometry N” value (SEC) turn out when B4 was run?
The value was 2.

B5: human HMGCS1 p.Cys268Ser (enzyme, UniProt Q01581 1-520, looked up)
chain: MPGSLPLNAEACWPKDVGIVALEIYFPSQYVDQAELEKYDGVDAGKYTIGLGQAKMGFCTDREDINSLCMTVVQNLMERNNLSYDCIGRLEVGTETIIDKSKSVKTNLMQLFEESGNTDIEGIDTTNACYGGTAAVFNAVNWIESSSWDGRYALVVAGDIAVYATGNARPTGGVGAVALLIGPNAPLIFERGLRGTHMQHAYDFYKPDMLSEYPIVDGKLSIQCYLSALDRCYSVYCKKIHAQWQKEGNDKDFTLNDFGFMIFHSPYSKLVQKSLARMLLNDFLNDQNRDKNSIYSGLEAFGDVKLEDTYFDRDVEKAFMKASSELFSQKTKASLLVSNQNGNMYTSSVYGSLASVLAQYSPQQLAGKRIGVFSYGSGLAATLYSLKVTQDATPGSALDKITASLCDLKSRLDSRTGVAPDVFAENMKLREDTHHLVNYIPQGSIDSLFEGTWYLVRVDEKHRRTYARRPTPNDDTLDEGVGLVHSNIATEHIPSPAKKVPRLPATAAEPEAAVISNGEH
For B5, which “stoichiometry N” value (SEC) is on record?
Its value is 2.

Reference: paper doi:10.1101/2023.10.25.23297129 (medRxiv, 2023)
